In US20200165325A1:

Assays:
[1] = target: HIV-1 Env of strain 0330.v4.c3 (HIV-1)
[2] = target: HIV-1 Env of strain 3103.v3.c10 (HIV-1)
[3] = target: HIV-1 Env of strain 3817.v2.c59 (HIV-1)
[4] = target: HIV-1 Env of strain 6540.v4.c1 (HIV-1)
[5] = target: HIV-1 Env of strain 6545.v4.c1 (HIV-1)
[6] = target: HIV-1 Env of strain AC10.0.29 (HIV-1)
[7] = target: HIV-1 Env of strain CAAN5342.A2 (HIV-1)
[8] = target: HIV-1 Env of strain CAP210.2.00.E8 (HIV-1)
[9] = target: HIV-1 Env of strain CAP45.2.00.G3 (HIV-1)
[10] = target: HIV-1 Env of strain CNE21 (HIV-1)
[11] = target: HIV-1 Env of strain Ce1176_A3 (HIV-1)
[12] = target: HIV-1 Env of strain Du156.12 (HIV-1)
[13] = target: HIV-1 Env of strain Q461.e2 (HIV-1)
[14] = target: HIV-1 Env of strain SC422661.8 (HIV-1)
[15] = target: HIV-1 Env of strain T251-18 (HIV-1)
[16] = target: HIV-1 Env of strain X1193_c1 (HIV-1)
[17] = target: HIV-1 Env of strain X1254_c3 (HIV-1)

| Substance | In vitro neutralization IC80 [1] [µg/mL] | In vitro neutralization IC80 [2] [µg/mL] | In vitro neutralization IC80 [3] [µg/mL] | In vitro neutralization IC80 [4] [µg/mL] | In vitro neutralization IC80 [5] [µg/mL] | In vitro neutralization IC80 [6] [µg/mL] | In vitro neutralization IC80 [7] [µg/mL] | In vitro neutralization IC80 [8] [µg/mL] | In vitro neutralization IC80 [9] [µg/mL] | In vitro neutralization IC80 [10] [µg/mL] | In vitro neutralization IC80 [11] [µg/mL] | In vitro neutralization IC80 [12] [µg/mL] | In vitro neutralization IC80 [13] [µg/mL] | In vitro neutralization IC80 [14] [µg/mL] | In vitro neutralization IC80 [15] [µg/mL] | In vitro neutralization IC80 [16] [µg/mL] | In vitro neutralization IC80 [17] [µg/mL] |
| --- | --- | --- | --- | --- | --- | --- | --- | --- | --- | --- | --- | --- | --- | --- | --- | --- | --- |
| NIH45-46 G54F IgG (antibody) | 0.13 | 1.28 | > 50 | > 50 | > 50 | 1.12 | 0.28 | > 50 | > 50 | 0.66 | 0.83 | 0.019 | 0.135 | 0.1 | 1.38 | 0.026 | 0.043 |
| NIH45-46 G54W IgG (antibody) | 0.11 | 0.56 | > 50 | > 50 | > 50 | 0.63 | 0.21 | > 50 | > 50 | 0.16 | 0.45 | 0.005 | 0.091 | 0.07 | 0.92 | 0.009 | 0.018 |
| NIH45-46 G54Y IgG (antibody) | 0.09 | 0.81 | > 50 | > 50 | > 50 | 0.9 | 0.27 | > 50 | > 50 | 0.29 | 0.58 | 0.026 | 0.103 | 0.09 | 1.16 | 0.024 | 0.041 |
